Experimental data: patent publication US20190106487A1 (Sanofi, published 2019)
Substitutions are numbered along the chain they refer to.

B1: P013.S.01.B.H05 (antibody, V domains shown)
VH: LEQSGGGAEGGLVKPGGSLELCCKASGFSLSNSYWICWVRQAPGKGLEWIGCIYVGSSGSTYYASWVNGRFTLSRDIDQSTGCLQLNSLTAADTAIYYCARDGATSTSGHLFELWGQGTLVTVSS
VL: ALVMTQTPSPVSAAVGGTVTINCQASEDIYSNLAWFQQKPGQPPKLLIYRASTLASGVPSRFSGSGSGTEFTLTISGVQSDDAATYYCLGIYTYISADGSLYNAFGGGTEVVVK
notes: rabbit monoclonal antibody; also called P013.A.00109.F08
B2: P013.S.01.B.H06 (antibody, V domains shown)
VH: LEQSGGGGEGGLVKPGGSLELCCKASGFSLSSSYWICWVRQAPGKGLEWIGCIYVGSSGSTYYASWVSGRFTLSRDIDQSTGCLQLNSLTAADTAMYYCARDIYGSTNGYDLWGQGTLVTVSS
VL: B1 VL with R50Q, T53K, V78L, A83V, I91V, Y92G, A97G, Y102D
notes: rabbit monoclonal antibody; also called P013.A.00086.B03
B3: P013.S.01.B.A06 (antibody, V domains shown)
VH: QSLEESGGRLVTPGTPLTLSCKVSGFSLSSYDMSWVRQTPGKGLEWIGTIYIGGTTAYASWPKGRFTISKTSTTVDLKITSPTKEDTATYFCARLQGANYYNSLALWGQGTLVTVSS
VL: DVVMTQTPASVSEPVGGTVTIKCQASQSIYSFLSWYQQKPGQPPKLLIYAASDLESGVPSRFSGSGYGTEFTLTISDLESADAATYYCQCNYIIDYGAFGGGTEVVVK
notes: rabbit monoclonal antibody; also called P013.A.00133.B12
B4: P013.S.02.B.B03 (antibody, V domains shown)
VH: QEQLEESGGDLVKPEGSLTLTCTASGFSFSSNYWICWVRQAPGKGLELIACIYTSTGNTWYASWAKGRFTISKTSSTTVTLQMTSLTVADTATYFCARDLLVVTSFNLWGQGTLVTVSS
VL: ALVMTQTPSPVSAAVGGTVTINCQASEDIYSNLAWFQQKPGQPPKLLIYGASTLASGVPSRFSGSGSGTEFTLTISGVQSDDAATYYCLGVCTDISTDDLYNAFGGGTELVVK
notes: rabbit monoclonal antibody; also called P013.A.00045.F11
B5: P013.S.02.B.F04 (antibody, V domains shown)
VH: B4 VH with E5V, L48W, G57D, N58T, W60Y, A62P, S63N, V88A
VL: B4 VL with T97A, A103T, L110V
notes: rabbit monoclonal antibody; also called P013.A.00109.B02
B6: P013.S.02.B.A05 (antibody, V domains shown)
VH: QEQLVESGGGLVQPEGSLTLTCQASGFTFSSYYVICWVRQAPGKGLEWIACIGTGDGLTYYASWAKGRFTISKTSSTTVTLQMTSLTAADTATYFCARDRYATVSGILNLWGPGTLVTVSS
VL: DVVMTQTPASVEAAVGGTVTIKCQASQNIYSNCAWYQQKLGQRPKLLIYYVSTLESGVPSRFEGSGYGTEFTLTISDLQSADAATYYCQYTYDSSSSTSWAFGGGTEVVVK
notes: rabbit monoclonal antibody; also called P013.A.00031.D11
B7: P013.S.01.B.G04 (antibody, V domains shown)
VH: QSVEESGGRLVTPGTPLTLTCTVSGFSLSVYAMGWFRQAPGKGLEWIGDIYIASDGTWYANWAKGRFTISKTSTTVDLKITSPTTEDTATYFCAREIDAGYVGYGFNLWGQGTLVTVSS
VL: AQALTQTPSPVSAAVGGTVTINCQSSQSVYSDYLGWYQQKPGQPPKLLIYWASKLETGVPSRFKGSGSGTQFTLTISGVQSDDAATYYCQATYYGSGWYRAFGGGTEVVVK
notes: rabbit monoclonal antibody; also called P013.A.00013.G06
B8: P013.S.01.B.C06 (antibody, V domains shown)
VH: B7 VH with T15G, P16S, V30I, I52A, A53G, D55G, G56S, N61S
VL: B7 VL with P10S, G35A, W51Q, E56A, V108L
notes: rabbit monoclonal antibody; also called P013.A.00014.D06
B9: P013.S.01.B.G03 (antibody, V domains shown)
VH: QEQLVESGGGLVQPEGSLTLTCKASGFDFSSNYYMCWVRQAPGKGLELIACIYTNSGNTWSASWAKGRFTISKTSSTTVTLQMTSLTAADTATYFCARDLNYPDTSNLWGQGTLVTVSS
VL: DIVMTQTPASVEAAVGGTVTIKCQASQSIGYYLAWYQQKPGQPPKLLISRASTLASGVPSRFKGSGSGTQFTLTISDLESADVATYYCQSYYNSDSDAFGGGTEVVVK
notes: rabbit monoclonal antibody; also called P013.A.00030.C03
B10: P013.S.02.B.B02 (antibody, V domains shown)
VH: LAQSGGGAEGGLVKPGGSLELCCEASGFSLSSSYWICWVRQAPGKGLEWIGCIYTGSSGNTYYASWVNGRFTLSRDIDRSTGCLQLNSLTAADTAMYYCARDANSHYMMNLWGQGTLVTVSS
VL: ALVMTQTPSPVSAAVGGTVTINCQASEDIYSNLAWFQQKPGQPPKLLIYDASTLASGVPSRFSGSGSGTEFTLTISGLQSDDAATYYCLGVYTYISADGTLVYNAFGGGTEVVVR
notes: rabbit monoclonal antibody; also called P013.A.00045.H10

Target: T1, rhIL-1RAcP/Fc Chimera (human, UniProt Q9NPH3 21-359)
T1 construct: also called P013_03; P013-03
T1 sequence (looked up): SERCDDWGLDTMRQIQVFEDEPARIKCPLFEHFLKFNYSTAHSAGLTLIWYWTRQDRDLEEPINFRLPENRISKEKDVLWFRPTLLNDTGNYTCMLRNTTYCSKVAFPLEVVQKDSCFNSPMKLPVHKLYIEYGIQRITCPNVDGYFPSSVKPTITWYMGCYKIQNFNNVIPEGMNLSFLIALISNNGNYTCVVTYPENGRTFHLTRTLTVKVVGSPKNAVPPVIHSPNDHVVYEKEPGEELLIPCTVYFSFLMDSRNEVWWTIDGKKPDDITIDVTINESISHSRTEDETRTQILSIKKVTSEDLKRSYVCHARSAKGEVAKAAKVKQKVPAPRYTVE
Assay: ELISA, primary supernatant, coated hu-IL-1RAcP-Fc
Procedure, shortened: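 Plates coated with 0.5 μg/mL Fc-tagged human IL-1RAcP; rabbit B-cell supernatant antibodies detected by peroxidase anti-rabbit IgG Fab2 and TMB, absorbance 450/620 nm. Parallel IL12Rβ1-Fc coating served as counterscreen to exclude tag binders.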

Binder	hu-IL1RaP ELISA (OD)
B1	3.3
B2	3.6
B3	3.5
B4	3.8
B5	3.5
B6	3.6
B7	3.4
B8	3.4
B9	3.2
B10	3.4

Target: T2, human IL-1RAcP on 293T/17-FR cells (human, UniProt Q9NPH3 21-570)
T2 sequence (looked up): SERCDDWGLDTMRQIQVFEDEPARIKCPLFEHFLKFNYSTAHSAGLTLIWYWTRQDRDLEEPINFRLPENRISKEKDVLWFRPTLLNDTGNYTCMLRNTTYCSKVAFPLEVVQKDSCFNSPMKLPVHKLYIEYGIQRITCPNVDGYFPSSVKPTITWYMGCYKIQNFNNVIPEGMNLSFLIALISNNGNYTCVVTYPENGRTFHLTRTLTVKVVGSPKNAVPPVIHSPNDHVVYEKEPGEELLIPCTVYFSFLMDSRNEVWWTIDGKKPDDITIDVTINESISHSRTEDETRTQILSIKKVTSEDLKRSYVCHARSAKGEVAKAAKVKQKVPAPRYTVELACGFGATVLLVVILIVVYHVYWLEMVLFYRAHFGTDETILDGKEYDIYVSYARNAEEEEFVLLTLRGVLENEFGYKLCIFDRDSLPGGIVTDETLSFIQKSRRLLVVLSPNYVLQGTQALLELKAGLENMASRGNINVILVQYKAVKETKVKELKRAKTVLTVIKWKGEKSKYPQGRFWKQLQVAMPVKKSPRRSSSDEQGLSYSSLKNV
Assay: cell-based or functional assay

Binder	functional reporter gene assay (% inhibition), 0.04 µg/mL mAb [%]	functional reporter gene assay (% inhibition), 0.2 µg/mL mAb [%]	functional reporter gene assay (% inhibition), 1 µg/mL mAb [%]	functional reporter gene assay (% inhibition), 5 µg/mL mAb [%]	primary supernatant functional assay (% inh.), NF-kB luciferase reporter [%]
B1	20	47	88	90	95
B2	18	47	88	96	91
B3	14	85	99	100	96
B4	17	31	78	89	94
B5	21	6	81	96	93
B6	-16	42	47	48	80
B7	15	51	84	95	99
B8	15	70	92	93	72
B9	38	51	82	92	89
B10	26	37	33	87	95

Target: T3, mIL1RAcP-Fc (murine, UniProt Q61730 21-359)
T3 construct: also called P013_04; P013-04
T3 sequence (looked up): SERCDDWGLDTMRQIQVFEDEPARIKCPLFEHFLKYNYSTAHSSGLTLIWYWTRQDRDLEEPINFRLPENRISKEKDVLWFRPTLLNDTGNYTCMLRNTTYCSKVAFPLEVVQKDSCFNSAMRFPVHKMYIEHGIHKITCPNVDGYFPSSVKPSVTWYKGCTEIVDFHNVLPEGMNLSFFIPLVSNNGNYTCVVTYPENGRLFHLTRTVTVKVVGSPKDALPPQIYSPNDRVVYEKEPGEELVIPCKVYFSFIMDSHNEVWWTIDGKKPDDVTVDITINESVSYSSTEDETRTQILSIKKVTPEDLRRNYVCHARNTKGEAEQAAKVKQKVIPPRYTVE
Assay: ELISA, primary supernatant, coated mu-IL-1RAcP-Fc

Binder	mu-IL1RaP ELISA (OD)
B1	0.4
B2	0
B3	0
B4	-0.1
B5	0
B6	0
B7	0
B8	-0.1
B9	0
B10	-0.1

Target: T1, rhIL-1RAcP/Fc Chimera
Assay: ELISA, recombinant purified mAb

Binder	EC50 [mg/L]
B1	0.485
B2	0.064
B3	0.027
B4	0.287
B5	0.497
B6	0.362
B7	0.255
B8	0.07
B9	0.144
B10	0.359
